# The supplement of paper PMC9112550, “Optimization of the antimicrobial peptide Bac7 by deep mutational scanning” (BMC Biology, 2022)
# Test system: Escherichia coli TOP10
# Experiment: shrunken log2 fold change of peptide-encoding DNA abundance (4.5 h post-induction vs induction); higher = less antimicrobial activity (less host growth inhibition)
# Conditions: time post-induction: 4.5 h; library: site-saturation at positions 5, 18, 19, 20
# 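Also: peptides expressed intracellularly from a pBAD plasmid library in pooled LB shake-flask culture, induced with 0.3% L-arabinose, DNA abundance read by NGS, three biological replicates, DESeq2 with apeglm shrinkage.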
row,Sequence,shrunken log2 fold change
1,RRIRSRPPRLPRPRPRPEFYPRP,-0.131
2,RRIRLRPPRLPRPRPRPEPNPRP,0.0389
3,RRIRRRPPRLPRPRPRPVAQPRP,0.324
4,RRIRPRPPRLPRPRPRPQYSPRP,-0.0482
5,RRIRLRPPRLPRPRPRPPSNPRP,0.00215
6,RRIRHRPPRLPRPRPRPAHVPRP,0.128
7,RRIRDRPPRLPRPRPRPKFWPRP,0.442
8,RRIRTRPPRLPRPRPRPNCRPRP,-0.00739
9,RRIRDRPPRLPRPRPRPYKIPRP,-1.46
10,RRIRKRPPRLPRPRPRPRLDPRP,0.624
11,RRIRMRPPRLPRPRPRPMISPRP,-0.0256
12,RRIRQRPPRLPRPRPRPDNNPRP,-1.14
13,RRIRKRPPRLPRPRPRPGGSPRP,0.178
14,RRIRIRPPRLPRPRPRPDTVPRP,-0.301
15,RRIRPRPPRLPRPRPRPLAVPRP,0.161
16,RRIRIRPPRLPRPRPRPMFQPRP,0.0263
17,RRIRPRPPRLPRPRPRPGMTPRP,0.0694
18,RRIRFRPPRLPRPRPRPCPPPRP,-0.131
19,RRIRRRPPRLPRPRPRPMDPPRP,0.139
20,RRIRGRPPRLPRPRPRPTSEPRP,0.339
21,RRIRTRPPRLPRPRPRPYIEPRP,-1.14
22,RRIRSRPPRLPRPRPRPDSDPRP,0.051
23,RRIRDRPPRLPRPRPRPQCVPRP,0.0602
24,RRIRQRPPRLPRPRPRPYSNPRP,-0.0703
25,RRIRYRPPRLPRPRPRPDELPRP,0.0702

row,Sequence,shrunken log2 fold change
1,RRIRCRPPRLPRPRPRPSPCPRP,-0.0417
2,RRIRIRPPRLPRPRPRPKGCPRP,-0.00865
3,RRIRWRPPRLPRPRPRPDGPPRP,0.199
4,RRIRCRPPRLPRPRPRPCLIPRP,-0.404
5,RRIRCRPPRLPRPRPRPMVSPRP,0.0237
6,RRIRWRPPRLPRPRPRPINMPRP,-0.328
7,RRIRTRPPRLPRPRPRPYFSPRP,-0.156
8,RRIRTRPPRLPRPRPRPIENPRP,0.0452
9,RRIRERPPRLPRPRPRPTCNPRP,-0.315
10,RRIRHRPPRLPRPRPRPSCGPRP,-0.304
11,RRIRKRPPRLPRPRPRPYCKPRP,0.0355
12,RRIRARPPRLPRPRPRPPAEPRP,1.15
13,RRIRVRPPRLPRPRPRPPWSPRP,0.161
14,RRIRTRPPRLPRPRPRPQYYPRP,-0.266
15,RRIRDRPPRLPRPRPRPMDSPRP,-0.0175
16,RRIRPRPPRLPRPRPRPHTKPRP,0.00533
17,RRIRLRPPRLPRPRPRPHAHPRP,-0.506
18,RRIRSRPPRLPRPRPRPNDDPRP,0.0402
19,RRIRQRPPRLPRPRPRPVVFPRP,1.25
20,RRIRDRPPRLPRPRPRPDIIPRP,0.221
21,RRIRGRPPRLPRPRPRPYMCPRP,0.0864
22,RRIRTRPPRLPRPRPRPAMRPRP,0.445
23,RRIRDRPPRLPRPRPRPGARPRP,0.863
24,RRIRSRPPRLPRPRPRPKDHPRP,-0.131
25,RRIRDRPPRLPRPRPRPPNWPRP,0.28

row,Sequence,shrunken log2 fold change
1,RRIRDRPPRLPRPRPRPAPVPRP,0.49
2,RRIRQRPPRLPRPRPRPALNPRP,-0.0345
3,RRIRVRPPRLPRPRPRPMWDPRP,-0.101
4,RRIRDRPPRLPRPRPRPDHEPRP,-0.148
5,RRIRERPPRLPRPRPRPIEMPRP,-0.0653
6,RRIRDRPPRLPRPRPRPIEPPRP,-0.0685
7,RRIRCRPPRLPRPRPRPHYRPRP,0.127
8,RRIRDRPPRLPRPRPRPMRCPRP,0.147
9,RRIRIRPPRLPRPRPRPLRDPRP,0.0322
10,RRIRHRPPRLPRPRPRPCGIPRP,-0.0112
11,RRIRQRPPRLPRPRPRPDICPRP,-0.0144
12,RRIRARPPRLPRPRPRPSYIPRP,-0.647
13,RRIRLRPPRLPRPRPRPAAQPRP,1.25
14,RRIRERPPRLPRPRPRPYILPRP,-2.27
15,RRIRERPPRLPRPRPRPCTLPRP,-0.407
16,RRIRRRPPRLPRPRPRPCGVPRP,0.0719
17,RRIRQRPPRLPRPRPRPVHTPRP,-0.168
18,RRIRMRPPRLPRPRPRPYMFPRP,-0.493
19,RRIRFRPPRLPRPRPRPNWFPRP,0.0383
20,RRIRHRPPRLPRPRPRPREDPRP,-0.0018
21,RRIRYRPPRLPRPRPRPPTRPRP,0.277
22,RRIRKRPPRLPRPRPRPFSDPRP,0.0546
23,RRIRERPPRLPRPRPRPSHAPRP,-0.0485
24,RRIRARPPRLPRPRPRPCTHPRP,-0.182
25,RRIRARPPRLPRPRPRPKKLPRP,0.223

row,Sequence,shrunken log2 fold change
1,RRIRYRPPRLPRPRPRPRGCPRP,-0.286
2,RRIRRRPPRLPRPRPRPANEPRP,0.245
3,RRIRMRPPRLPRPRPRPDKPPRP,-0.00474
4,RRIRGRPPRLPRPRPRPKLQPRP,0.991
5,RRIRPRPPRLPRPRPRPQFKPRP,0.0824
6,RRIRPRPPRLPRPRPRPDSSPRP,-0.000765
7,RRIRMRPPRLPRPRPRPKICPRP,-0.155
8,RRIRFRPPRLPRPRPRPVEYPRP,-0.109
9,RRIRGRPPRLPRPRPRPKEFPRP,-0.0157
10,RRIRCRPPRLPRPRPRPLHIPRP,-0.335
11,RRIRLRPPRLPRPRPRPIGCPRP,-0.0407
12,RRIRIRPPRLPRPRPRPWMIPRP,-0.0493
13,RRIRCRPPRLPRPRPRPWQKPRP,-0.0588
14,RRIRIRPPRLPRPRPRPHLMPRP,-1.31
15,RRIRMRPPRLPRPRPRPRMTPRP,1.84
16,RRIRFRPPRLPRPRPRPCEAPRP,0.122
17,RRIRHRPPRLPRPRPRPLAKPRP,0.107
18,RRIRMRPPRLPRPRPRPQWHPRP,0.265
19,RRIRMRPPRLPRPRPRPRWVPRP,0.4
20,RRIRLRPPRLPRPRPRPFDPPRP,-0.352
21,RRIRTRPPRLPRPRPRPQMQPRP,-0.0728
22,RRIRNRPPRLPRPRPRPGQFPRP,-0.0134
23,RRIRQRPPRLPRPRPRPTLFPRP,0.12
24,RRIRHRPPRLPRPRPRPCFHPRP,-0.48
25,RRIRNRPPRLPRPRPRPHSYPRP,0.132

row,Sequence,shrunken log2 fold change
1,RRIRIRPPRLPRPRPRPTCGPRP,-0.0476
2,RRIRSRPPRLPRPRPRPQFIPRP,-1.79
3,RRIRARPPRLPRPRPRPYMHPRP,-0.361
4,RRIRWRPPRLPRPRPRPMACPRP,-0.0978
5,RRIRNRPPRLPRPRPRPHWQPRP,-0.115
6,RRIRERPPRLPRPRPRPTSAPRP,0.153
7,RRIRKRPPRLPRPRPRPWMYPRP,-0.122
8,RRIRVRPPRLPRPRPRPNMLPRP,-0.432
9,RRIRTRPPRLPRPRPRPSSLPRP,-0.0765
10,RRIRTRPPRLPRPRPRPVPVPRP,0.0547
11,RRIRPRPPRLPRPRPRPAHTPRP,-0.0311
12,RRIRERPPRLPRPRPRPGQIPRP,0.0685
13,RRIRNRPPRLPRPRPRPQCSPRP,-0.148
14,RRIRYRPPRLPRPRPRPYNNPRP,-1.43
15,RRIRSRPPRLPRPRPRPIIPPRP,-0.188
16,RRIRSRPPRLPRPRPRPSRLPRP,-0.0299
17,RRIRWRPPRLPRPRPRPWRTPRP,0.0595
18,RRIRVRPPRLPRPRPRPLEFPRP,-0.114
19,RRIRERPPRLPRPRPRPEMDPRP,0.125
20,RRIRMRPPRLPRPRPRPQYYPRP,-0.805
21,RRIRGRPPRLPRPRPRPFKGPRP,-0.00192
22,RRIRSRPPRLPRPRPRPRWMPRP,-0.206
23,RRIRMRPPRLPRPRPRPSFTPRP,-0.0116
24,RRIRMRPPRLPRPRPRPIWNPRP,-0.0214
25,RRIRERPPRLPRPRPRPARHPRP,-0.00285
